Data published in the RNAGym collection of RNA variant scans (doi:10.7554/elife.90254).

B1: OR4K15 (parent)
chain: GUUAACGGUCAUAGGCCAUGGAAACUAGGAGCACCAUUUCGCUGCCAGUGAAGAAAUGAACAAAGAAAAUCUGGGCCAGGCAGGCAUCAAAAGAAAUAGUCUUGCGCUCAACCAGAAAGUCUGUAAUCAUUUUAAGGGUA

Variants of: B1
Test: self-cleavage, relative activity (ratio to wild type); higher = more cleavage; in vitro, sequencing; the parent is a self-cleaving ribozyme

Row | Variant | self-cleavage
1 | U70A A116U | 0.79
2 | A68U A82G | 0.75
3 | A68U A82U | 0.25
4 | U70A A91G | 1.22
5 | U70C U127A | 0.95
6 | C71A | 0.61
7 | C71G | 0.24
8 | C71U | 0.17
9 | A67U U87C | 1.29
10 | U70C A135G | 1.14
11 | U72A U124C | 0.04
12 | C71U A91G | 0.41
13 | A68C A92G | 1.88
14 | A69G A129U | 0.33
15 | U72C A91C | 0.27
16 | A67G G137A | 1.67
17 | A68G U70A | 1.12
18 | A68G G137C | 1.12
19 | A68G G137A | 1.06
20 | A69C A126G | 0.51
21 | A69G U72A | 0.19
22 | A69G U72C | 0.3
23 | U72A U132C | 0.23
24 | U72A U132A | 0.25

Row | Variant | self-cleavage
25 | U70G U102C | 0.64
26 | U70A U103C | 0.68
27 | A68G A116G | 0.8
28 | A69U A125G | 0.75
29 | A68G C88U | 1.57
30 | A69G U102A | 0.58
31 | A69G U102C | 2.06
32 | U72A C101U | 0.04
33 | U70A A92G | 0.4
34 | A67U A82G | 0.9
35 | U72A A129U | 0.23
36 | U72A A129G | 0.08
37 | C71U A89G | 0.52
38 | A67U U100G | 1.34
39 | A67U A135G | 2.46
40 | A67G U131C | 1.2
41 | U70C A110U | 0.92
42 | U70A A125G | 0.44
43 | U72C A94G | 0.07
44 | U72C A94C | 0.1
45 | A68G A78G | 0.3
46 | A68G A78U | 0.13
47 | U70C A82G | 0.31
48 | A68G C128U | 1.44

Row | Variant | self-cleavage
49 | A68G U103A | 0.5
50 | A68G U103C | 0.96
51 | U70A U120C | 0.41
52 | A68G A135U | 0.68
53 | A69G A114G | 0.17
54 | A68G U122C | 1.18
55 | U70C A78G | 0.26
56 | A67G U122C | 0.99
57 | A67G U122A | 0.99
58 | U70C A118U | 0.18
59 | A68U A78G | 0.27
60 | A69C A96C | 1.03
61 | A69G C105G | 0.02
62 | A67G G75C | 0.03
63 | U70C C121U | 1.42
64 | A68G G136A | 1.44
65 | A68G G136C | 1.93
66 | A69U U131C | 1.33
67 | A69G A125G | 0.39
68 | U70C A125G | 0.19
69 | U70C A125U | 1.06
70 | U72A A118G | 0.12
71 | U72C A90G | 0.54
72 | A68U U102A | 1.15

Row | Variant | self-cleavage
73 | A68U U102C | 2.04
74 | A68G A129C | 0.82
75 | A68G A129G | 1.05
76 | A68G A129U | 1.42
77 | A68U G137A | 1.39
78 | A69G A111G | 0.03
79 | A67U A114G | 0.66
80 | C71U U87A | 0.61
81 | U72A A92G | 0.26
82 | A69G C112U | 0.01
83 | U70C A94G | 0.77
84 | A68U A111G | 0.02
85 | C71A U120C | 0.24
86 | U70C U132C | 0.96
87 | U70C U132A | 0.38
88 | C71U U102C | 0.66
89 | C71U C105U | 0.07
90 | A67G C128U | 0.62
91 | U72A U122C | 0.12
92 | A69U U122A | 2.21
93 | A68G C77A | 0.54
94 | A68U G119A | 1.58
95 | U70C U87C | 0.09
96 | U70C U87A | 0.61

Row | Variant | self-cleavage
97 | U72A A134U | 0.27
98 | U70C G123A | 1.18
99 | A68U A126G | 0.6
100 | A69G A110U | 0.98
101 | A69G A110G | 0.14
102 | A69G A89U | 1.53
103 | A68G G106U | 0.02
104 | U70C U130C | 0.21
105 | U72C A82U | 0.08
106 | U72C A82G | 0.3
107 | A69G U103C | 0.73
108 | U72A A96G | 0.2
109 | U72A A116G | 0.04
110 | U72A U103C | 0.14
111 | A69U A86G | 2.37
112 | U72A U133C | 0.29
113 | A69U U97A | 2.51
114 | U70A A89G | 1.13
115 | U70C C88U | 1.54
116 | A69G A140G | 1.93
117 | U70A U130C | 0.61
118 | U72A A98G | 0.04
119 | U70C A140G | 0.38
120 | U70C A140U | 0.96

Row | Variant | self-cleavage
121 | A69U U130C | 0.9
122 | A67G U130C | 1.25
123 | U70C C113G | 0.02
124 | U70C C113U | 0.02
125 | C71A A86G | 0.28
126 | A68G A89G | 2.04
127 | U70C C101U | 0.12
128 | U70C C101G | 0.11
129 | U72C A86U | 0.14
130 | U72C A86G | 0.14
131 | A69U | 1.81
132 | A69C | 1.05
133 | A69G | 1.16
134 | U70C G74U | 0.17
135 | A68G A69G | 0.87
136 | A68G A69C | 0.94
137 | A68G A69U | 1.38
138 | A68G U72A | 0.26
139 | A68G U72C | 0.29
140 | U70A U102A | 0.25
141 | A67U A78C | 0.23
142 | A68G A118G | 0.77
143 | A68G A118C | 0.67
144 | A68G A118U | 0.83

Row | Variant | self-cleavage
145 | U72A U130C | 0.13
146 | U70A A111G | 0.04
147 | A69G U70C | 0.25
148 | A68G A91C | 1.44
149 | A68G A91U | 1.44
150 | A67U A116C | 0.1
151 | A67G G99U | 0.62
152 | A69G G104C | 0.01
153 | A69C U120C | 0.7
154 | A69G U122C | 0.43
155 | A68G G138A | 1.67
156 | A69G U139C | 1.24
157 | A69C A90G | 0.37
158 | A67G C107A | 0.04
159 | A68G U87A | 0.96
160 | A69U A114G | 2.05
161 | A68G U139C | 0.95
162 | U70C U122C | 0.09
163 | A68G A134G | 1.5
164 | U70C A98G | 0.41
165 | A69U A94U | 2.23
166 | A67G G93U | 1.17
167 | C71A A82G | 0.26
